# Experiments:
# [1] = in water at room temperature; cited from earlier work
# [2] = Stability of hCT upon storage in liquid formulations (precipitate, gel or turbidity indicative of fibrillation); format: physicochemical; settings: bile salts (0.5-1.0%: taurocholate, deoxycholate, glycocholate), neutral or acidic pH
# Protocol: As used herein, "stable," "stabilizing," and similar terms refer to inhibiting the precipitation, fibrillation, or gelation of human calcitonin molecules upon storage in a liquid medium at a temperature of about 4°-25° C. Human calcitonin is considered "stable" or "stabilized" in a selected liquid medium when no precipitation, fibrillation, or gellation is detected upon storage at a temperature of about 4°-25° C. for a period of at least about 6 months.
# Since hCT is highly unstable in aqueous solutions of neutral or basic pH, acidic formulations were investigated to determine whether increased stability could be obtained. […]
# Samples (1-2 ml) containing 0.2-10 mg/ml of hCT in aqueous formulations were prepared and then maintained in 4 ml borosilicate vials at ambient temperature or at 4° C. […] In some cases, the concentration of unaggregated hCT was determined using reversed-phase HPLC (Waters modular system with Waters model 745 integrator, Bedford, Mass.) on a Vydac C4 column (4.6 mm×25 cm) equilibrated at a flow rate of 1 ml/min with 0.1% (v/v) trifluoroacetic acid containing 30% (v/v) acetonitrile. […] Absorbance (at 220 nm) of the eluent was recorded and processed to quantify the amount of hCT injected. […]
# [3] = Reversed-phase HPLC analysis of unaggregated hCT in formulations; format: physicochemical; settings: 0.01% acetic acid containing 1.0% SDS; 8 months of storage at ambient temperature
# Protocol: Samples (1-2 ml) containing 0.2-10 mg/ml of hCT in aqueous formulations were prepared and then maintained in 4 ml borosilicate vials at ambient temperature or at 4° C. The samples were checked periodically for the presence of a precipitate, a gel, or turbidity, which are indicative of fibrillation. In cases of formulations in which the hCT was very unstable, changes in turbidity could be followed over time by spectrophotometry at 340 nm. T. Arvinte et al., The structure and mechanism of formation of human calcitonin fibrils, 268 J. Biol. Chem. 6415-22 (1993), hereby incorporated by reference. In some cases, the concentration of unaggregated hCT was determined using reversed-phase HPLC (Waters modular system with Waters model 745 integrator, Bedford, Mass.) on a Vydac C4 column (4.6 mm×25 cm) equilibrated at a flow rate of 1 ml/min with 0.1% (v/v) trifluoroacetic acid containing 30% (v/v) acetonitrile. Five minutes after injection of a 100 μl sample, a linear gradient of 0.67% acetonitrile/min was applied. Absorbance (at 220 nm) of the eluent was recorded and processed to quantify the amount of hCT injected.
# HPLC analysis of hCT in 0.01% acetic acid or in 0.01% acetic acid containing 1.0% SDS was performed to determine the state and concentration of unaggregated hCT in such formulations. […]
# [4] = 5 mg/ml hCT in 0.0001%-1.0% acetic acid; could not be duplicated by the applicant; cited from earlier work
Molecule,Critical micelle concentration (CMC) [1] [%],Time to gel formation [2] [h],HPLC profiles and UV spectra after storage [3],Period of stable formulation reported by EP 490549 [4] [months]
"CCCCCCCCCCCCOS(=O)(=O)[O-].[Na+] [SDS, sodium dodecyl sulfate]",0.24,,,
Human calcitonin [hCT],,≤ 1,not altered,8

# From patent publication US5726154A, “Stabilization and oral delivery of calcitonin” (University of Utah Research Foundation, priority 1996, dated 1998)
